Data: patent US20170326260A1
Where a chain is given by its changes, count along the chain named. Values belong to the binder of their own block, whether it stands above or below them.

Molecular target: partially (~50%) activated 3954-1204-c225v5
Experiment: sandwich ELISA in human plasma; clone 41 coated as capture, biotinylated detection antibody, streptavidin-HRP, OD 450 nm

signal relative to the signal for intact 3954-1204-c225v5: 50 % lower
B1: antibody 58-1 (antibody, V domains shown)
VH: QSVEESGGRLVMPGGSLTLTCTVSGIDLSRYGMAWFRQAPGKGLKYIGAISSSGNEDYASWAIGRFTISKTSTTAELKMTSLTTEDTATYFCGRGWLSNNAYMWGPGTLVTVSS
VL: PVLTQTPTPVSAAVGGTVTINCQASQSIYNKNQLSWFQQKPGQPPKLLIHYASTLASGVSSRFKGSGSGTQFTLTISDVQCDDAATYYCLGDFSCSGVDCLVVGGGTEVVVEG

signal relative to the signal for intact 3954-1204-c225v5: 50 % lower
B2: antibody 72-3 (antibody, V domains shown)
VH: B1 VH with R30H, K45E, A62P, I63K, A75V, E76T, A101V
VL: B1 VL with P1Q, T8P, P9S, F37L, L47V, V102S
